Results from article doi:10.1101/2022.02.11.480115 (2022).

Key:
Experiment in all cases: BLI
[1] = molecular target: H7 AN13 HA trimer (A/Anhui/1/2013) (influenza A virus A/Anhui/1/2013 (H7N9))
[2] = molecular target: H5 VN04 HA trimer (A/Vietnam/1203/2004) (influenza A virus A/Vietnam/1203/2004 …)
H1 CA09 stem = molecular target: H1 CA09 stem
[3] = molecular target: H6 HA (recombinant, Figure 4e) (influenza A virus (H6 subtype, strain …))
[4] = molecular target: H10 JD13 HA trimer (A/Jiangxi-Donghu/346/2013, H10N8) (influenza A virus …)
[5] = molecular target: H1 HA (recombinant, Figure 4e) (influenza A virus (H1 subtype, strain …))

B1: 789-203-3C12 Fab (Fab, V domains shown)
VH: QVQLQESGPGLVKPSEILSLTCAVSGGSFSSYCWGWIRQPPGKGLEWIGSICGSGGSNYLNPSLKSRVTLSVDTSKNQFSLILNSVTAADTAVYYCAREGITIFGVVIPRVLDSWGQGAVVTVSS
VL: DIQMTQSPSSLSASVGDTVTITCRASQSISSWLAWYQQKPGKAPNLLIYRASTLQSGVPSRFSGSGSGTDFTLTISSLQSEDFATYFCQQSTSSPFTFGPGTKLDIK
Question: B1 was tested. Which Kd [1] did it give?
Answer: Its Kd is 0.534 µM.

Question: And the Kd [2]?
Answer: The Kd was 0.151 µM.

Question: And the Kd (H1 CA09 stem)?
Answer: Its Kd is 0.00566 µM.

Question: What about the Kd [3] of the same binder?
Answer: The Kd was 0.0275 µM.

Question: And the Kd [4]?
Answer: Its Kd is 0.0816 µM.

Question: And the Kd [5]?
Answer: Its Kd is 0.00659 µM.
